Entries after “also recorded” stand apart in the source; their conditions may differ.
Experiments:
P16 promoter = test: p16 methylation (MSP/COBRA) after transient transfection; format: cell-based, human; conditions: SNU-398, transient co-transfection with dCas9, guide G2, 72 hours
Excerpt: (§1) In this example, a modified CRISPR/dCAS9 system for gene activation and demethylation was developed and tested with P16. The DiR localized in CEBPA locus (ecCEBPA) is repurposed to other specific gene target(s) for demethylation and reactivation. The RNA stem-loops (R2 and R5), interacting with DNMT1(1), were fused to the tetra- and stem-loop 2 in a single guide RNA (sgRNA) scaffold to obtain a modified sgRNA (MsgRNA, sgDiR in FIG. 1, also referred to as MsgDiR6 in Example 3 below). The hepatocellular carcinoma (HCC) cell line SNU-398, in which P16 is silenced by promoter methylation, was transiently transfected with dCas9 plasmid and one MsgRNA (using guide G2: […] (SEQ ID NO: 29), MsgRNA with guide G2 is shown as G2sgDiR in FIG. 1, as targeting portion) targeting the template strand of P16 promoter.
(§2) SNU-398 cells were seeded at a density of […] in 6-well plates 24 hours before transfection employing jetPRIME transfection reagent (Polyplus Transfection) as described by the manufacturer. 2 μg mix of sgRNA/MsgDiR and dCas9 plasmid(s) (sgRNA/MsgDiR: dCas9 molar ratio 1:1) were transfected into each well of cells. The culture medium was changed 12 hours after transfection. Alternatively, the Neon™ Transfection System (Thermo Fisher) was used for cell electroporation according to the manufacturer's instructions. The same plasmid amount and ratios were used in the Neon as in the jetPRIME transfection. The parameters used for the highest SNU-398 transfection efficiency were 0.7 to 1.5 million cells in 100 μl reagent, voltage 1550 V, width 35 ms and 1 pulse. The culture medium was changed 24 hours after transfection.
The methylation profiles of the p16 gene locus or the whole genome were assessed by bisulfite-conversion based assays. For DNA bisulfite conversion, 1.6-1.8 μg of genomic DNA of each sample was converted by the EpiTect Bisulfite Kit (Qiagen) following the manufacturer's instructions.
For Methylation-Specific PCR (MSP), both methylation specific primers and unmethylation specific primers of p16 were used for the PCR of the same bisulfite converted sample (the transient transfection samples in the sgRNA and MsgDiR1-8 screening assay). […] 7 min, 4° C. hold. […] 7 min, 4° C. hold. […] 7 min, 4° C. hold.

P16 = test: p16 mRNA qRT-PCR after transient transfection of sgRNA/MsgDiR with or without dCas9; format: cell-based, human; conditions: SNU-398, 72 hours; for P16 mRNA expression (qRT-PCR): transient co-transfection with dCas9, guide G2
Excerpt: as §1
This study transiently transfected dCas9 plasmid together with one MsgRNA plasmid (G2sgDiR) to SNU398 cells, culturing three days without selection for the positively transfected cells. Guide G2 targets one site in the template strand (also known as antisense strand) of P16 promoter; and was initially chosen for two reasons: 1) the sequence is one of the three guides used in a P16 gene study (3), and 2) G2 targets the P16 promoter region, the methylation and demethylation of which has been considered as an important factor for gene regulation.
All measurements were performed in triplicate.
as §2

B1: MsgRNA: Example 1 modified sgRNA, guide G2, R2 in tetra-loop and R5 in stem loop 2, SEQ ID NO: 15; used with dCas9 (nucleic acid)
guide: GCACUCAAACACGCCUUUGCGUUUUAGAGCUACCCGGGACGCGGGUCCGGGACAGUAGCAAGUUAAAAUAAGGCUAGUCCGUUAUCAACUUCUGAGGCCUUGGCGAGGCUUCUAAGUGGCACCGAGUCGGUGCUUUUUU
modifications: MsgRNA
notes: used with dCas9
Question: Which results are given for B1?
Answer: P16 DNA methylation / demethylation (P16 promoter): loss of DNA methylation; P16 DNA methylation / demethylation (P16 promoter; listed as CRISPR-R2R5 system): demethylation; P16 mRNA expression (qRT-PCR) (P16): two-fold increase; P16 mRNA expression (qRT-PCR) (P16; listed as CRISPR-R2R5 system): moderate gene activation

B2: MsgDiR6: R2-R5 modified sgRNA scaffold (CRISPR-DiR), SEQ ID NO: 53; tested with guide G2 (nucleic acid)
guide: NNNNNNNNNNNNNNNNNNNGUUUGAGAGCUACCCGGGACGCGGGUCCGGGACAGUAGCAAGUUCAAAUAAGGCUAGUCCGUUAUCAACUUCUGAGGCCUUGGCGAGGCUUCUAAGUGGCACCGAGUCGGUGCUUUUUU
modifications: MsgDiR6 R2-R5 Sequence; (1)..(19) n is a, c, g, or u
notes: tested with guide G2
Question: What does the source list for B2?
Answer: P16 DNA methylation / demethylation (P16 promoter): induces P16 demethylation; P16 mRNA expression (qRT-PCR) (P16): moderate activation of p16; also recorded: moderate gene activation; P16 mRNA expression (qRT-PCR) (P16; listed as sgDiR (G2)): moderate activation; p16 activation in absence of dCas9 (P16; transient transfection without dCas9): no effects

B3: MsgDiR7: R2-R2 modified sgRNA, SEQ ID NO: 54 (nucleic acid)
guide: NNNNNNNNNNNNNNNNNNNGUUUGAGAGCUACCCGGGACGCGGGUCCGGGACAGUAGCAAGUUCAAAUAAGGCUAGUCCGUUAUCAACUUCCCGGGACGCGGGUCCGGGACAGAAGUGGCACCGAGUCGGUGCUUUUUU
modifications: MsgDiR7 R2-R2 Sequence; (1)..(19) n is a, c, g, or u
Question: Which “P16 DNA methylation / demethylation” value (P16 promoter) does the source give for B3 here?
Answer: not effective

From US20220290139A1, “METHODS AND COMPOSITIONS FOR GENE SPECIFIC DEMETHYLATION AND ACTIVATION” (NATIONAL UNIVERSITY OF SINGAPORE, priority 2019, published 2022)
